Biological target: Slit-N fused to alkaline phosphatase (Drosophila)
Assay: alkaline phosphatase fusion binding assay on beads

B1: Dscam1 EC4 fused to Fc (Fc fusion)
chain: ANPPDADQKGPVFLKEPTNRIDFSNSTGAEIECKASGNPMPEIIWIRSDGTAVGDVPGLRQISSDGKLVFPPFRAEDYRQEVHAQVYACLARNQFGSIISRDVHVRAVVAQYYEADVNKEHVIRGNSAVIKCLIPSFVADFVEVVSWHTDEEENYFPGAEYDGKYLVLPSGELHIREVGPEDGYKSYQCRTKHRLTGETRLSATKGRLVITEPVSSSPPKINALTYKPNIVESMASTAILCPAQGYPAPSFRWYKFIEGTTRKQAVVLNDRVKQVSGTLIIKDAVVEDSGKYLCVVNNSVGGESVETVLTVTAPLSAKIDPPTQTVDFGRPAVFTCQYTGNPIKTVSWMKDGKAIGHSEPVLRIESVKKEDKGMYQCFVRNDQESAEASAELK
**Q.** With B1 as the binder, how does the Kd read?
**A.** 22.2 ± 2.85 nM

Reference: publication PMC4699798 (Cell, 2015)
